In the supplement of paper PMC12042874:
± gives the uncertainty stated by the source.

Assay: amyloid nucleation score (Sup35N fusion, yeast selection) (log enrichment); library NNK3; higher = more nucleation; inactive = no reads after selection
Method in brief: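 Nucleation score is defined as the DiMSum log enrichment of output over input reads, with centring on the mode score of non-aggregating sequences. A minimum of 100 input reads was required for each sequence. Reads came from Illumina sequencing of plasmid inserts from psi-negative yeast expressing Sup35N fused to peptides of 20 random codons, induced with 100 μM copper sulfate for 24 hours and grown 7 days at 30°C on medium lacking adenine and uracil.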

| Substance | amyloid nucleation score |
| --- | --- |
| IWNRLESFHCHILMVTFHVN | inactive |
| GYWGTLSERPYTELIAGTSI | inactive |
| HTLRWE | inactive |
| FALSVVQG | inactive |
| MWVSAYWYNTCRYRFLSV | inactive |
| HNWNRFTQSILWGTYNFFVG | 2.26 ± 0.085 |
| PHMNWSYVPQF | inactive |
| SQPDCFNICDLHGRSSCVSK | inactive |
| AFIRFTVFNIGVKKYSCL | 1.55 ± 0.065 |
| NEVDDWFSD | inactive |
| VDVFK | inactive |
| EKANLLIWDFKKDMLRTVGG | inactive |
| LCGLERLKVMQWHSVPRKHI | inactive |
| RTLRRLTGNSILFRYWSNKG | inactive |
| SGCERAWMAVCENRSSCILG | inactive |
| FEYLLGKLCRLCSNAGRSLS | inactive |
| DADSMRWNSPGLCH | inactive |
| AVNFCMLWGVYASSQKNLGF | 0.585 ± 0.32 |
| CTRCVFSIR | -0.056 ± 0.57 |
| KEADSVNDRLVNLLMHGTLC | inactive |
| RMDWWYSGCLFMRYPALTAL | inactive |

| Substance | amyloid nucleation score |
| --- | --- |
| DRDMVCMSEL | inactive |
| WKGMITFGI | inactive |
| AVCYRLWFKM | inactive |
| RKAYATYATDRLISSDYG | inactive |
| YSDKDSLGSGNSFFSFSEKW | inactive |
| FLYRDDDHSYVSESDLNSCS | inactive |
| LVRVGSSNYLVNQIRPNISA | inactive |
| KWLMNSNFAWLI | inactive |
| FYYIVIFSNHWPSCILCRGR | 0.792 ± 0.28 |
| SKYKVCFTRSFF | inactive |
| CNKSFRLYEMM | inactive |
| ARWNAI | inactive |
| ISTVFLVISSAGTCPSHDKE | 1.32 ± 0.095 |
| RESVTSPILILSWEGISRCH | inactive |
| MEINAVPD | inactive |
| REFPRGWLLGLLCFRLYLLE | inactive |
| RWELGIQALVR | inactive |
| HLVRIASIRLNCDPLYRSVV | inactive |
| FRASVPPEVLPKFARVGMNA | inactive |
| KIQSMISTITMVFTKLLSHL | -0.546 ± 0.7 |
| LFLFESQTCDSRVQNCISFG | inactive |

| Substance | amyloid nucleation score |
| --- | --- |
| RISLDNTWGFL | inactive |
| GVISVFWMLWYLYPSLL | inactive |
| NSNSI | inactive |
| ILWSILVYLTLITVLCLCHF | 0.444 ± 0.26 |
| FRVSVIFIFGCHMFGVLMTP | inactive |
| MIQGSVYPFHLCHLYDISHE | inactive |
| MVVRDDKIWIAFRCLYDCCV | inactive |
| TRYLSSFISYGEDSMHVFCG | inactive |
| IIDYRDQRVLESLRFYVLCS | inactive |
| SRRYFYIDIRYRNIKP | inactive |
| RLVLRDPTSTVIVRVPLGFV | -0.547 ± 1.9 |
| SDDDSYLWSSLFQA | inactive |
| HFITCELGFGDKGSIFFIAG | inactive |
| ITTFVVMCDLVVLVC | inactive |
| SVLRYE | inactive |
| GLVWTW | -0.01 ± 0.48 |
| GQVYMSVRV | inactive |
| YSSGGYLTRVRRKGSMYRAL | inactive |
| DGHGRRHSRVQIRGIVACSD | inactive |
| WFVRLLGSAFN | inactive |
| LGGTSNLMFGYMK | inactive |

| Substance | amyloid nucleation score |
| --- | --- |
| WSPGESNTLVGVCIEDALRS | inactive |
| VRLYADNNLSAITKLLCPKN | inactive |
| MCIHSITECRS | inactive |
| RIVNALTSCDLFSCGSVLRR | 1.92 ± 0.1 |
| TQYMWAYPNND | 1.18 ± 0.16 |
| ESDAFKLCAYDLNIMNISRF | inactive |
| LNFTCEVGGVYEVDVNSCLL | inactive |
| MHYICAGSGSWAI | inactive |
| VEDLMF | inactive |
| CVYGKYLFLVIPEDEPTLYV | 0.439 ± 0.31 |
| GFHLGFHGWNCKLAK | -0.349 ± 0.49 |
| YESHLSRRLLIMYIGAFLGR | inactive |
| CWLAAFSFRRSVLSCQGGQG | inactive |
| FMGADVAQRMFYKSANGCEW | inactive |
| TSSNRVLVIPVELMIPWRF | -0.299 ± 1.1 |
| VQFLRFQVHELFSRPFIA | inactive |
| WVFNGARKGM | inactive |
| NSFDFYAAGPY | inactive |
